From the supplement of paper PMC10567573 come the findings set out here.

B1: CDC25B (parent)
chain: ELKTFRLKTRSWAGERSRRELCSR
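Also: lentivirally expressed fusions sorted by FACS into six bins by GFP to DsRed ratio, PSI derived from sequencing read proportions per bin multiplied by bin number.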

This series covers variants of B1. The series is described as follows: protein stability index of a GFP-peptide fusion (GPS, HEK-293T) (PSI 1-6); higher = more stable. The settings on record: c terminus: a fixed tail appended.
For ELKTFRLKTRSWAGERSRRELCGR [S23G], the protein stability index came to 3.44.

Consider ELKTFRLKTRSWAGERSRRELCER [S23E], for which the protein stability index turned out to be 3.53.

For the variant ELKTFRLKTRSWAGERSRRELCNR [S23N], the protein stability index was determined as 3.8.

Regarding ELKTFRLKTRSWAGERSRRELCMR [S23M], the protein stability index was determined as 3.26.

Regarding ELKTFRLKTRSWAGERSRRELCFR [S23F], the protein stability index was 3.03.

For the variant ELKTFRLKTRSWAGERSRRELCCR [S23C], the protein stability index was 3.05.

Regarding ELKTFRLKTRSWAGERSRRELCIR [S23I], the protein stability index was found to be 2.95.

For the variant ELKTFRLKTRSWAGERSRRELCDR [S23D], the protein stability index was 4.21.

With ELKTFRLKTRSWAGERSRRELCKR [S23K], the protein stability index was 3.62.

Turning to ELKTFRLKTRSWAGERSRRELCAR [S23A], the protein stability index came out at 3.02.

On to ELKTFRLKTRSWAGERSRRELCLR [S23L], for which the protein stability index stood at 3.35.

On to ELKTFRLKTRSWAGERSRRELCHR [S23H], for which the protein stability index is 3.13.

Consider ELKTFRLKTRSWAGERSRRELCPR [S23P], for which the protein stability index stood at 3.26.

For ELKTFRLKTRSWAGERSRREECSR [L21E], the protein stability index came out at 3.6.

With ELKTFRLKTRSWAGERSRRECCSR [L21C], the protein stability index was 3.66.

For ELKTFRLKTRSWAGERSRREWCSR [L21W], the protein stability index turned out to be 2.55.

On to ELKTFRLKTRSWAGERSRREKCSR [L21K], for which the protein stability index is 3.76.

Regarding ELKTFRLKTRSWAGERSRREACSR [L21A], the protein stability index turned out to be 3.91.

With ELKTFRLKTRSWAGERSRREICSR [L21I], the protein stability index is 2.81.

As for ELKTFRLKTRSWAGERSRREVCSR [L21V], the protein stability index is 3.71.

Turning to ELKTFRLKTRSWAGERSRRETCSR [L21T], the protein stability index turned out to be 3.84.

Consider ELKTFRLKTRSWAGERSRREPCSR [L21P], for which the protein stability index turned out to be 3.99.

As for ELKTFRLKTRSWAGERSRREDCSR [L21D], the protein stability index was found to be 3.98.

As to ELKTFRLKTRSWAGERSRREFCSR [L21F], the protein stability index came to 3.12.

In the case of ELKTFRLKTRSWAGERSRREMCSR [L21M], the protein stability index was 3.33.

In the case of ELKTFRLKTRSWAGERSRREQCSR [L21Q], the protein stability index came to 3.15.

As for ELKTFRLKTRSWAGERSRRESCSR [L21S], the protein stability index stood at 3.9.

ELKTFRLKTRSWAGERSRRERCSR [L21R]: the protein stability index turned out to be 3.37.

For the variant ELKTFRLKTRSWAGERSRRENCSR [L21N], the protein stability index is 3.35.

With ELKTFRLKTRSWAGERSRREYCSR [L21Y], the protein stability index amounted to 3.61.

Take ELKTFRLKTRSWAGERSRREGCSR [L21G]: the protein stability index was determined as 3.75.

As to ELKTFRLKTRSWAGERSRREHCSR [L21H], the protein stability index came to 3.31.

On to ELKTFRLKTRSWAGERSYRELCSR [R18Y], for which the protein stability index is 2.58.

In the case of ELKTFRLKTRSWAGERSSRELCSR [R18S], the protein stability index turned out to be 3.85.

On to ELKTFRLKTRSWAGERSTRELCSR [R18T], for which the protein stability index was 3.38.

ELKTFRLKTRSWAGERSVRELCSR [R18V]: the protein stability index was determined as 3.6.

On to ELKTFRLKTRSWAGERSWRELCSR [R18W], for which the protein stability index was 2.84.

On to ELKTFRLKTRSWAGERSRRPLCSR [E20P], for which the protein stability index is 3.08.

Turning to ELKTFRLKTRSWAGERSRRVLCSR [E20V], the protein stability index was 2.9.

For the variant ELKTFRLKTRSWAGERSRRWLCSR [E20W], the protein stability index came to 2.57.

As to ELKTFRLKTRSWAGERSRRILCSR [E20I], the protein stability index was determined as 2.66.

Turning to ELKTFRLKTRSWAGERSRRNLCSR [E20N], the protein stability index was 3.42.

ELKTFRLKTRSWAGERSRRYLCSR [E20Y]: the protein stability index came to 2.69.

On to ELKTFRLKTRSWAGERSRRSLCSR [E20S], for which the protein stability index turned out to be 2.92.

On to ELKTFRLKTRSWAGERSRRRLCSR [E20R], for which the protein stability index worked out at 2.78.

Take ELKTFRLKTRSWAGERSRRCLCSR [E20C]: the protein stability index amounted to 2.72.

For ELKTFRLKTRSWAGERSRRALCSR [E20A], the protein stability index is 3.25.

Take ELKTFRLKTRSWAGERSRRTLCSR [E20T]: the protein stability index stood at 2.88.

In the case of ELKTFRLKTRSWAGERSRRQLCSR [E20Q], the protein stability index turned out to be 3.53.

Take ELKTFRLKTRSWAGERSRRFLCSR [E20F]: the protein stability index was found to be 2.52.

Turning to ELKTFRLKTRSWAGERSRRDLCSR [E20D], the protein stability index was 2.98.

Turning to ELKTFRLKTRSWAGERSRRLLCSR [E20L], the protein stability index amounted to 2.42.

For ELKTFRLKTRSWAGERSRRKLCSR [E20K], the protein stability index was found to be 3.47.

Take ELKTFRLKTRSWAGERSRRGLCSR [E20G]: the protein stability index turned out to be 2.65.

Consider ELKTFRLKTRSWAGERSRRHLCSR [E20H], for which the protein stability index turned out to be 3.52.

With ELKTFRLKTRSWAGERSRRMLCSR [E20M], the protein stability index was found to be 3.25.

Take ELKTFRLKTRSWAGERSRRELWSR [C22W]: the protein stability index was found to be 2.89.

On to ELKTFRLKTRSWAGERSRRELLSR [C22L], for which the protein stability index was 2.79.

Consider ELKTFRLKTRSWAGERSRRELQSR [C22Q], for which the protein stability index came to 3.26.

As for ELKTFRLKTRSWAGERSRRELFSR [C22F], the protein stability index is 3.01.

For ELKTFRLKTRSWAGERSRRELHSR [C22H], the protein stability index worked out at 3.42.

Turning to ELKTFRLKTRSWAGERSRRELDSR [C22D], the protein stability index stood at 3.27.

Regarding ELKTFRLKTRSWAGERSRRELYSR [C22Y], the protein stability index was found to be 2.6.

As to ELKTFRLKTRSWAGERSRRELNSR [C22N], the protein stability index stood at 4.04.

Turning to ELKTFRLKTRSWAGERSRRELISR [C22I], the protein stability index was determined as 3.33.

Regarding ELKTFRLKTRSWAGERSRRELGSR [C22G], the protein stability index amounted to 4.06.

As to ELKTFRLKTRSWAGERSRRELVSR [C22V], the protein stability index stood at 3.54.

Take ELKTFRLKTRSWAGERSRRELESR [C22E]: the protein stability index was determined as 3.65.

For the variant ELKTFRLKTRSWAGERSRRELKSR [C22K], the protein stability index amounted to 3.57.

Regarding ELKTFRLKTRSWAGERSRRELRSR [C22R], the protein stability index amounted to 4.04.

Regarding ELKTFRLKTRSWAGERSRRELMSR [C22M], the protein stability index is 2.96.

Regarding ELKTFRLKTRSWAGERSRRELPSR [C22P], the protein stability index was 3.01.

For ELKTFRLKTRSWAGERSRRELSSR [C22S], the protein stability index amounted to 3.25.

For ELKTFRLKTRSWAGERSRRELTSR [C22T], the protein stability index was found to be 3.48.

In the case of ELKTFRLKTRSWAGERSRRELASR [C22A], the protein stability index was determined as 3.36.

On to ELKTFRLKTRSWAGERSRAELCSR [R19A], for which the protein stability index amounted to 4.2.

Consider ELKTFRLKTRSWAGERSRQELCSR [R19Q], for which the protein stability index came to 3.45.

ELKTFRLKTRSWAGERSRKELCSR [R19K]: the protein stability index stood at 3.26.

For ELKTFRLKTRSWAGERSRDELCSR [R19D], the protein stability index was determined as 2.88.

In the case of ELKTFRLKTRSWAGERSRPELCSR [R19P], the protein stability index stood at 2.98.

As to ELKTFRLKTRSWAGERSRWELCSR [R19W], the protein stability index came to 2.02.

With ELKTFRLKTRSWAGERSRTELCSR [R19T], the protein stability index amounted to 2.57.

As to ELKTFRLKTRSWAGERSRFELCSR [R19F], the protein stability index is 2.49.

Consider ELKTFRLKTRSWAGERSRHELCSR [R19H], for which the protein stability index was determined as 3.13.

Take ELKTFRLKTRSWAGERSRCELCSR [R19C]: the protein stability index was determined as 2.25.

With ELKTFRLKTRSWAGERSRNELCSR [R19N], the protein stability index turned out to be 3.38.

For ELKTFRLKTRSWAGERSRVELCSR [R19V], the protein stability index was 2.74.

Consider ELKTFRLKTRSWAGERSRLELCSR [R19L], for which the protein stability index was found to be 3.2.

Consider ELKTFRLKTRSWAGERSRMELCSR [R19M], for which the protein stability index stood at 3.

Consider ELKTFRLKTRSWAGERSRGELCSR [R19G], for which the protein stability index was found to be 3.46.

As for ELKTFRLKTRSWAGERSREELCSR [R19E], the protein stability index is 3.66.

For the variant ELKTFRLKTRSWAGERSRYELCSR [R19Y], the protein stability index came out at 3.51.

For the variant ELKTFRLKTRSWAGERSRSELCSR [R19S], the protein stability index worked out at 3.28.

For ELKTFRLKTRSWAGERSRIELCSR [R19I], the protein stability index is 2.57.
